Source: FireProtDB (doi:10.1074/jbc.m005861200)

B1: Cytochrome c-551, P00099 (parent)
chain: MKPYALLSLLATGTLLAQGAWAEDPEVLFKNKGCVACHAIDTKMVGPAYKDVAAKFAGQAGAEAELAQRIKNGSQGVWGPIPMPPNAVSDDEAQTLAKWVLSQK

Variants of: B1
Conditions: Pseudomonas aeruginosa (strain ATCC 15692 / DSM 22644 / CIP 104116 / JCM 14847 / LMG 12228 / 1C / PRS 101 / PAO1); pH 5; 25 °C; GdnHCl; DSC; Unknown; reversible: yes; structure 451C; whole UniProt chain shown

Variant | denaturant midpoint (higher = more stable)
MKPYALLSLLATGTLLAQGAWAEDPEVLAKNKGCMACHAIDTKMVGPAYKDVAAKYAGQAGAEAYLAQRIKNGSQGVWGPIPMPPNAVSDDEAQTLAKWILSQK | 4.39 M

Same assay, conditions: Pseudomonas aeruginosa (strain ATCC 15692 / DSM 22644 / CIP 104116 / JCM 14847 / LMG 12228 / 1C / PRS 101 / PAO1); pH 5; 47.3 °C; Thermal; DSC; Unknown; reversible: yes; structure 451C; whole UniProt chain shown

Variant | Tm | change of melting temperature, mutant - wild type (higher = more stable) | heat capacity change of unfolding
MKPYALLSLLATGTLLAQGAWAEDPEVLAKNKGCMACHAIDTKMVGPAYKDVAAKYAGQAGAEAYLAQRIKNGSQGVWGPIPMPPNAVSDDEAQTLAKWILSQK | 80.2 °C | 32.9 °C | 1.07 kcal/mol/K

Same assay, conditions: Pseudomonas aeruginosa (strain ATCC 15692 / DSM 22644 / CIP 104116 / JCM 14847 / LMG 12228 / 1C / PRS 101 / PAO1); pH 5; Thermal; DSC; Unknown; reversible: yes; structure 451C; whole UniProt chain shown

Variant | Tm | change of melting temperature, mutant - wild type (higher = more stable) | heat capacity change of unfolding | unfolding enthalpy (calorimetric)
MKPYALLSLLATGTLLAQGAWAEDPEVLAKNKGCMACHAIDTKMVGPAYKDVAAKYAGQAGAEAYLAQRIKNGSQGVWGPIPMPPNAVSDDEAQTLAKWILSQK | 80.2 °C | 32.9 °C | 1.07 kcal/mol/K | 46 kcal/mol
